This note sets out measurements from patent US20250090644A1.

Holding throughout (assay): cell-based or functional assay
Assay [1] has as its target E. coli expressed recombinant human microplasmin Phe587Ala (human) (UniProt P00747).
The target in assay [2] is E. coli expressed recombinant human microplasmin Arg610Ala (human) (UniProt P00747).
Assay [3] concerns the target E. coli expressed recombinant human microplasmin Glu641Ala (human) (UniProt P00747).
Assay [4] concerns the target E. coli expressed recombinant human microplasmin Met585Ala (human) (UniProt P00747).
For assay [5], the target named is E. coli expressed recombinant human microplasmin Gly739Ala (human) (UniProt P00747).
The target of assay [6] is E. coli expressed recombinant human microplasmin Pro642Ala (human) (UniProt P00747).
The target of assay [7] is E. coli expressed recombinant human microplasmin, wild type (human) (UniProt P00747).
The target in assay [8] is E. coli expressed recombinant human microplasmin Arg582Ala (human) (UniProt P00747).
Assay [9] addresses E. coli expressed recombinant human microplasmin Ser608Ala (human) (UniProt P00747).
The target of assay [10] is E. coli expressed recombinant human microplasmin Lys607Ala (human) (UniProt P00747).
Assay [11] concerns the target E. coli expressed recombinant human microplasmin K642A (Table 3) (human) (UniProt P00747).

B1: α2-antiplasmin (protein, UniProt P08697 40-491, looked up)
chain: NQEQVSPLTLLKLGNQEPGGQTALKSPPGVCSRDPTPEQTHRLARAMMAFTADLFSLVAQTSTCPNLILSPLSVALALSHLALGAQNHTLQRLQQVLHAGSGPCLPHLLSRLCQDLGPGAFRLAARMYLQKGFPIKEDFLEQSEQLFGAKPVSLTGKQEDDLANINQWVKEATEGKIQEFLSGLPEDTVLLLLNAIHFQGFWRNKFDPSLTQRDSFHLDEQFTVPVEMMQARTYPLRWFLLEQPEIQVAHFPFKNNMSFVVLVPTHFEWNVSQVLANLSWDTLHPPLVWERPTKVRLPKLYLKHQMDLVATLSQLGLQELFQAPDLRGISEQSLVVSGVQHQSTLELSEVGVEAAAATSIAMSRMSLSSFSVNRPFLFFIFEDTTGLPLFVGSVRNPNPSAPRELKEQQDSPGNKDFLQSLKGFPRGDKLFGPDLKLVPPMEEDYPQFGSPK
As to B1, the IC50 (relative to the µPlm WT enzyme) (fold relative to WT) in assay [1] is 3.9; in [2], 1.7; in [3], 1.6; in [4], 1.2; in [7], 1; in assay [8] it was 1.6. The results for the IC50 (relative to the µPlm WT enzyme) (fold relative to WT) in [9], in [10] and in assay [11] were 1.2, 1 and 1, respectively. Moreover, in [1], the activity remaining in the presence of α2-AP (% activity remaining) was 50. In addition, the α2-AP inhibition of µPlm activity in assay [5] is above 400 nM. Moreover, in [6], the IC50 of α2-AP inhibition (fold of WT) (fold relative to WT) worked out at 2.
